Experimental findings from paper PMC6103731 (RNA Biology, 2017) are described below.

For data set [1], the target named is T1, EC1-2 domain of VE-cadherin.
T1 sequence (P33151 whole entry, species assumed, looked up): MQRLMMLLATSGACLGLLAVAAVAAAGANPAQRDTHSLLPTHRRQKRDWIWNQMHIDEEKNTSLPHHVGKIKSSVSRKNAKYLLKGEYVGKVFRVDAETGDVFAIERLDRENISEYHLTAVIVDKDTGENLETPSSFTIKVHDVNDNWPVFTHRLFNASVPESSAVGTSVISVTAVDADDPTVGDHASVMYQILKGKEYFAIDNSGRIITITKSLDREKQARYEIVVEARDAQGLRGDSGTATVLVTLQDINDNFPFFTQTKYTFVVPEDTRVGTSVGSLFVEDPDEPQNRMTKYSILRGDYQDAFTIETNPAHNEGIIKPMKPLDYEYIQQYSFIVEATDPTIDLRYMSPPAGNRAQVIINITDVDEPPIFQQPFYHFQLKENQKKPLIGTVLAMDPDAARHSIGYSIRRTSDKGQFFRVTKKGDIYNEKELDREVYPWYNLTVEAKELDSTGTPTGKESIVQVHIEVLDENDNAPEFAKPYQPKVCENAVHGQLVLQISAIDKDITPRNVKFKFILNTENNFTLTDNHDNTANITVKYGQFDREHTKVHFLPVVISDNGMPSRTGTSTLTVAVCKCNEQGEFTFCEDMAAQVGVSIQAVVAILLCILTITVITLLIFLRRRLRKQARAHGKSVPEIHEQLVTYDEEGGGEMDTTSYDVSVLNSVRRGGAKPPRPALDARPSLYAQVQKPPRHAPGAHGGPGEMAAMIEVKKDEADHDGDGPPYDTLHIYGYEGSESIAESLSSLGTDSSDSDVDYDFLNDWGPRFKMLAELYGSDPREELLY
In words: SPR. Background: SPR reads the build-up and loss of mass on a sensor chip optically.

The data set “crystal structure” deals with the molecule itself. In words: crystal structure.

B1: human H130R T2-TrpRS (domain or fragment, UniProt P23381 97-471, looked up)
chain: GIDYDKLIVRFGSSKIDKELINRIERATGQRPHRFLRRGIFFSHRDMNQVLDAYENKKPFYLYTGRGPSSEAMHVGHLIPFIFTKWLQDVFNVPLVIQMTDDEKYLWKDLTLDQAYSYAVENAKDIIACGFDINKTFIFSDLDYMGMSSGFYKNVVKIQKHVTFNQVKGIFGFTDSDCIGKISFPAIQAAPSFSNSFPQIFRDRTDIQCLIPCAIDQDPYFRMTRDVAPRIGYPKPALLHSTFFPALQGAQTKMSASDPNSSIFLTDTAKQIKTKVNKHAFSGGRDTIEEHRQFGGNCDVDVSFMYLTFFLEDDDKLEQIRKDYTSGAMLTGELKKALIEVLQPLIAEHQARRKEVTDEIVKEFMTPRKLSFDFQ
In data set [1], B1 returned a fold stronger binding affinity than WT T2-TrpRS greater than 50 fold and a kon of 2.71e+07 M⁻¹ s⁻¹. The “stoichiometry N” value in “crystal structure” is 2.

B2: wild-type human T2-TrpRS (domain or fragment)
chain: GIDYDKLIVRFGSSKIDKELINRIERATGQRPHHFLRRGIFFSHRDMNQVLDAYENKKPFYLYTGRGPSSEAMHVGHLIPFIFTKWLQDVFNVPLVIQMTDDEKYLWKDLTLDQAYSYAVENAKDIIACGFDINKTFIFSDLDYMGMSSGFYKNVVKIQKHVTFNQVKGIFGFTDSDCIGKISFPAIQAAPSFSNSFPQIFRDRTDIQCLIPCAIDQDPYFRMTRDVAPRIGYPKPALLHSTFFPALQGAQTKMSASDPNSSIFLTDTAKQIKTKVNKHAFSGGRDTIEEHRQFGGNCDVDVSFMYLTFFLEDDDKLEQIRKDYTSGAMLTGELKKALIEVLQPLIAEHQARRKEVTDEIVKEFMTPRKLSFDFQ
Molecule B2 registered a kon in data set [1] of 176000 M⁻¹ s⁻¹.

As usually defined, the kon is the second-order rate constant of association. The low end stands for slow association, the high end for fast association. The term stoichiometry N denotes a count of units in the complex or per binding partner.
